140 substances from the supplement of paper PMC12042874 can be followed below.

± gives the uncertainty stated by the source.

A short description of this series: amyloid nucleation score (Sup35N fusion, yeast selection) (log enrichment); library NNK2; higher = more nucleation; inactive = no reads after selection. In outline:
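Using DiMSum, nucleation scores were taken as the log enrichment of output over input reads, centred on the mode score of non-aggregating sequences. The input and output reads came from Illumina sequencing of plasmid inserts, with sequences under 100 input reads excluded. The yeast were psi-negative, expressed Sup35N fused to peptides of 20 random codons, were induced with 100 μM copper sulfate for 24 hours, and were grown 7 days at 30°C on medium lacking adenine and uracil.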
CEVLKHSCTDSEMHAKADGV yielded an amyloid nucleation score of -0.307 ± 0.23.

In turn, CFANRNRFFMSLSEHHTFDG gave an amyloid nucleation score of -0.798 ± 1.1.

In turn, CFCQTCSLSRAKSMEEGCLR had an amyloid nucleation score of -1.08 ± 0.54.

In turn, CFEMV yielded an amyloid nucleation score of -0.886 ± 0.21.

For CFESHWCRYPLDGRLGHKEF, the amyloid nucleation score result is “inactive”.

Substance CFFTSYTRA displayed an amyloid nucleation score of -0.114 ± 0.55.

In turn, CFGFYGAIVD yielded an amyloid nucleation score of 0.023 ± 0.39.

Consider CFGMLS, for which the amyloid nucleation score was -0.679 ± 1.1.

On to CFGRGLCVSIGVVRCTGGPC, for which the amyloid nucleation score was determined as 0.119 ± 0.62.

With CFIRFSRMGLFLFCLPKNLQ, the amyloid nucleation score is -1.59 ± 0.53.

With CFISQILEFCCSFIFSRDFF, the amyloid nucleation score turned out to be 0.286 ± 0.27.

For CFMLVFSRTCVSMYTIVNPS, the amyloid nucleation score was determined as 4.59 ± 0.11.

For CFNSTDN, the amyloid nucleation score entry is “inactive”.

On to CFRKLQYISFYYTTWVILDA, for which the amyloid nucleation score result is “inactive”.

Turning to CFRLD, the amyloid nucleation score result is “inactive”.

For CFSCVFIMDCCRH, the amyloid nucleation score was 7.954 ± 0.062.

CFSHYHDSFLPGWYYSGNYV displayed an amyloid nucleation score of -0.788 ± 0.4.

Substance CFSRMRRTEW registered an amyloid nucleation score of -0.142 ± 0.23.

Substance CFTNIYRKGMMCYGPFTAMT gave an amyloid nucleation score of -0.214 ± 1.1.

Take CFVNGLRNSHLGNLVWVPIG: the amyloid nucleation score is -1 ± 0.39.

As for CFVVRE, the amyloid nucleation score is 0.404 ± 0.46.

CGFFKVRENGFCGFKKMSFS showed an amyloid nucleation score of -1.12 ± 1.1.

CGILYSFDGRFVYWSSYGSS: the amyloid nucleation score was -0.353 ± 0.79.

Turning to CGNPFGLSTHFNYLRRMPWE, the amyloid nucleation score is 0.116 ± 0.25.

As for CGSQKWVQYKIMKWYK, the amyloid nucleation score stood at 0.627 ± 0.57.

Consider CGVFCLV, for which the amyloid nucleation score turned out to be 1.44 ± 0.41.

As for CGVFSLQCYHVDESTRCREF, the amyloid nucleation score came out at 6.401 ± 0.061.

The substance CGVVSLCSGWSLMYDRGWWG returned an amyloid nucleation score of 10.2 ± 0.054.

The substance CGYVEV showed an amyloid nucleation score of 0.244 ± 0.65.

For the substance CIMMYVT, the amyloid nucleation score came to 0.259 ± 0.17.

Turning to CISSKHISVGVTDNLVVV, the amyloid nucleation score was determined as 0.436 ± 0.8.

As to CKALCIKIWVERVTC, the amyloid nucleation score was found to be 2.31 ± 0.16.

CKDTTKPGYFGFDIFPNVYE registered an amyloid nucleation score of 2.37 ± 0.15.

In the case of CKENFKIFFDFYYGMTSVLS, the amyloid nucleation score result is “inactive”.

For CKKLMLILEFWMCMLSLNIA, the amyloid nucleation score came out at 3.58 ± 0.072.

For CKLHRVYAIFFSMD, the amyloid nucleation score entry was “inactive”.

CKLTATCQSQMTEIGLGSFA: the amyloid nucleation score worked out at 3.62 ± 0.046.

In turn, CKTLVSGGL gave an amyloid nucleation score of -0.344 ± 0.41.

The substance CLAVIQWFPCIVDMGLECGF had an amyloid nucleation score of 2.96 ± 0.049.

CLCGPRIGLSVFNYVYFGMG came in with an amyloid nucleation score of 4.2 ± 0.046.

CLDLLWHSWASYLLAGALWW yielded an amyloid nucleation score of 0.94 ± 0.74.

CLEMFLKLCSLECARMKLPR displayed an amyloid nucleation score of 5.673 ± 0.04.

CLFWLHQHMQYFHVMGLSPT registered an amyloid nucleation score of 2.21 ± 0.22.

CLHCSRFSKTLYRKFRNREN returned an amyloid nucleation score of -0.33 ± 0.76.

In turn, CLKPFRHTFEFLYQVDFTEV registered an amyloid nucleation score of -1.56 ± 1.1.

For the substance CLLHMWIGLSSKVGGVRDA, the amyloid nucleation score is -0.781 ± 0.79.

CLLLRVTR came in with an amyloid nucleation score of 0.015 ± 0.27.

In turn, CLPGTCRRCQWGRGIDQSSE showed an amyloid nucleation score of 0.317 ± 0.41.

CLSRHAHRRRGMVYAGDYRA gave an amyloid nucleation score of -0.256 ± 0.49.

Take CLTSGHL: the amyloid nucleation score is 0.372 ± 0.74.

Turning to CLVINSIKVFYARVGTSYKF, the amyloid nucleation score turned out to be 2.01 ± 0.19.

The substance CLVYVGRVPSRIGDHRITAY returned an amyloid nucleation score of 0.966 ± 0.38.

For CMEETMVSSLKLLTRPMTSR, the amyloid nucleation score was 0.052 ± 0.29.

CMFKQYYYCARAYSVSWTVM displayed an amyloid nucleation score of -0.013 ± 0.56.

Take CMGDNVIC: the amyloid nucleation score is -0.954 ± 0.37.

In turn, CMLMYVYMIDWRPINFMFF gave an amyloid nucleation score of 5.301 ± 0.041.

Turning to CMNGPFTLTRPTARGRIRC, the amyloid nucleation score is 0.32 ± 0.51.

In the case of CMSNTMCAFVDGYNMHYLVD, the amyloid nucleation score result was “inactive”.

In turn, CMYNRLLLLGALFVTPQWVR registered an amyloid nucleation score of 0.079 ± 0.5.

Regarding CNFHCPI, the amyloid nucleation score was 2.63 ± 0.17.

For CNFVTILLGMN, the amyloid nucleation score worked out at 4.85 ± 0.055.

In turn, CNIRAYDIISTLMHFVLCH showed an amyloid nucleation score of -1.67 ± 0.55.

Regarding CNLSFVGS, the amyloid nucleation score was 0.287 ± 0.25.

Turning to CNNQRYVNNGITRNGRNDAG, the amyloid nucleation score was -0.604 ± 0.76.

As for CNRAQLNVSPNLDDMRKFGV, the amyloid nucleation score is -0.506 ± 1.

As to CNRGLKFAVGFKLLTIPTSL, the amyloid nucleation score result is “inactive”.

On to CNVSSWSFLPPS, for which the amyloid nucleation score entry is “inactive”.

CNYMSVWN: the amyloid nucleation score was -0.021 ± 0.74.

As for CPLFYMSMISGFEGIFSLHK, the amyloid nucleation score entry is “inactive”.

With CPLNLPTLGRLATEKRAWG, the amyloid nucleation score was -0.177 ± 0.79.

Turning to CQGHQWSYRPVP, the amyloid nucleation score turned out to be 0.684 ± 0.35.

For CQRTLQTGAYRDGLCIYGLS, the amyloid nucleation score was 1.38 ± 0.41.

Turning to CRHYKFV, the amyloid nucleation score is -0.097 ± 1.1.

CRMFSEHSYRRSSLSVPGMN: the amyloid nucleation score result was “inactive”.

In turn, CRNLPGVCEMPSGVANYRVL came in with an amyloid nucleation score of -0.547 ± 1.1.

On to CRSAVRRILGFNLSRVFSWF, for which the amyloid nucleation score is -0.417 ± 0.64.

Take CRSNQNESLNGC: the amyloid nucleation score was 0.436 ± 0.21.

Regarding CRSRT, the amyloid nucleation score came to 0.978 ± 0.28.

CRSSGFRFTLRKWCWNVNEC: the amyloid nucleation score is -0.7 ± 0.76.

Take CRSWTHKSHIPVKLSNDTMS: the amyloid nucleation score was -0.106 ± 0.63.

CSCMKFWKFLLIRQSYKPGM had an amyloid nucleation score of 2.16 ± 0.18.

On to CSEVQNLFNM, for which the amyloid nucleation score entry was “inactive”.

For CSFCRPFVTCILIRSKVCGW, the amyloid nucleation score came to 1.21 ± 0.11.

The substance CSFLYIGLVIPSFEYDHALL came in with an amyloid nucleation score of 4.171 ± 0.041.

As for CSFRAFLWCILGGGENFNSS, the amyloid nucleation score turned out to be 2.91 ± 0.065.

Take CSGYSERAPRFCSDLIVCST: the amyloid nucleation score is 0.574 ± 0.51.

CSMFSKLMVNSGLSSVLTVM displayed an amyloid nucleation score of 0.047 ± 0.28.

With CSNSFLI, the amyloid nucleation score is -0.868 ± 1.1.

In turn, CSVVTNGLLNMSSFPHVFCM showed an amyloid nucleation score of 1.79 ± 0.11.

CSWVRSLYNGIVLKKH showed an amyloid nucleation score of -0.652 ± 0.45.

CTCFVLSGSVV: the amyloid nucleation score was 2.4 ± 0.13.

Substance CTCLWNDMRRGP showed an amyloid nucleation score of 1.99 ± 0.25.

For the substance CTCTDTEDKWVKSGYSRGAH, the amyloid nucleation score was 2.22 ± 0.079.

Turning to CTEFSLTDCSSG, the amyloid nucleation score entry is “inactive”.

CTFHFVSGHTTTGSR: the amyloid nucleation score came to 1 ± 0.66.

In the case of CTFLRNIGFLYWYVSPLNLG, the amyloid nucleation score result was “inactive”.

In turn, CTQVMTERV showed an amyloid nucleation score of -0.091 ± 0.32.

CTSMGA gave an amyloid nucleation score of -0.291 ± 0.79.

CTSVGFTYHRDFWYMGFWSR came in with an amyloid nucleation score of 0.919 ± 0.15.

Turning to CTVFCLQRSFGHYSLMMLIN, the amyloid nucleation score is 2.22 ± 0.12.

In the case of CVAWKR, the amyloid nucleation score is 0.554 ± 0.48.

As to CVCDLCVPWVLNFGR, the amyloid nucleation score turned out to be 8.914 ± 0.051.

In the case of CVCSVYAGNFCLIVLVWLMV, the amyloid nucleation score stood at 0.433 ± 0.74.

Substance CVCYDLYELLAITQLHLWSF gave an amyloid nucleation score of -0.344 ± 0.48.

CVDTSFCLYARELILCAR showed an amyloid nucleation score of -0.121 ± 0.5.

The substance CVDVDIKMLPGFCRCNIPLC returned an amyloid nucleation score of -1.34 ± 1.1.

In turn, CVFVPIKLGGDGLTVYLKCI registered an amyloid nucleation score of -0.996 ± 0.45.

CVHLLSVSGWDFQYYFQAFN: the amyloid nucleation score is 1.17 ± 0.13.

On to CVIGCSGWKRIFIISILYRV, for which the amyloid nucleation score is -0.562 ± 1.

Take CVKVNWVSV: the amyloid nucleation score was -0.81 ± 0.76.

Substance CVMSFYPELIILASSFCVPF returned an amyloid nucleation score of -1.22 ± 0.36.

For the substance CVTQSR, the amyloid nucleation score was -0.086 ± 0.26.

For CVVKDSSTVFM, the amyloid nucleation score is -1.9 ± 1.

For CVVQHSRSFVRPLLSTLQAC, the amyloid nucleation score came to 0.453 ± 0.23.

For the substance CVWGWNRSYTYYYGDAIGHC, the amyloid nucleation score entry is “inactive”.

Substance CWARMWGYSKCHSRVFSYMS returned an amyloid nucleation score of -1.1 ± 0.55.

CWDRFTYEYLSFYSLISRV: the amyloid nucleation score result is “inactive”.

The substance CWFPWSSYLRNMFELPKTWL came in with an amyloid nucleation score of 0.529 ± 0.55.

As for CWQVYLIFMGRMVCLTVML, the amyloid nucleation score amounted to 1.15 ± 0.66.

CYAPKYGRHWP: the amyloid nucleation score came to 0.708 ± 0.49.

CYFSGSVSRTSVRLVLLSNG came in with an amyloid nucleation score of -0.573 ± 1.1.

CYGLYPEDLLCMYGKLDLPR: the amyloid nucleation score worked out at 0.229 ± 0.61.

In the case of CYINKVRCMMHLWDHDDTWG, the amyloid nucleation score was 0.734 ± 0.81.

Consider CYLVYFSYKLHQI, for which the amyloid nucleation score was -1.43 ± 1.1.

Consider CYSLSYLILVCR, for which the amyloid nucleation score amounted to 5.73 ± 0.041.

CYTDTMARK: the amyloid nucleation score is 4.15 ± 0.047.

CYVDFSYLVNKFYWGPRWMP showed an amyloid nucleation score of -0.049 ± 0.5.

CYVRI registered an amyloid nucleation score of -0.603 ± 1.1.

CYVVAREKSLIETGNFGKYG came in with an amyloid nucleation score of -0.653 ± 0.79.

On to CYYVDIVVSHQRTTSVMVGD, for which the amyloid nucleation score turned out to be 0.698 ± 0.29.

DACWFMIGHIGFC: the amyloid nucleation score entry is “inactive”.

As to DAITCGVHFAKDLNWVYIEV, the amyloid nucleation score entry is “inactive”.

DAMSMCP came in with an amyloid nucleation score of 7.398 ± 0.061.

In the case of DCFTRYGCAGKYRVGAQGSS, the amyloid nucleation score was determined as 1.47 ± 0.47.

The substance DCHEGRTNPRALKCFTEERG came in with an amyloid nucleation score of 0.173 ± 1.1.

Consider DCLICFKDICNFENNEMIGA, for which the amyloid nucleation score is -0.556 ± 0.2.

Take DCLRCNHYTVCNMYDRFFLL: the amyloid nucleation score result is “inactive”.

Turning to DCPLFQRLYRQS, the amyloid nucleation score is -0.211 ± 0.22.

The substance DCSDLVSLLCNVRHAHGRWL returned an amyloid nucleation score of 4.42 ± 0.067.

For DCSNDRKIYYNWAIRVVRTD, the amyloid nucleation score is 0.076 ± 0.35.
